Non-standard residues stand in square brackets, D forms with d. No end group written: not given here. Arg(Me2a) = CN(C)C(=N)NCCC[C@H](N)C(=O)O; Lys(Me3) = C[N+](C)(C)CCCC[C@H](N)C(=O)O; Arg(Me2s) = CN=C(NC)NCCC[C@H](N)C(=O)O; pT = C[C@@H](OP(=O)(O)O)[C@H](N)C(=O)O; Me2a = asymmetric dimethyl (on Arg); Lys(Me2) = CN(C)CCCC[C@H](N)C(=O)O; Me2s = symmetric dimethyl (on Arg); pS = N[C@@H](COP(=O)(O)O)C(=O)O; Lys(Me) = CNCCCC[C@H](N)C(=O)O; Me3 = trimethyl (on Lys)
T1: Bdf1 bromodomain 2 (GST-tagged, WT) (Saccharomyces cerevisiae (strain ATCC …, UniProt P35817))
T1 chain: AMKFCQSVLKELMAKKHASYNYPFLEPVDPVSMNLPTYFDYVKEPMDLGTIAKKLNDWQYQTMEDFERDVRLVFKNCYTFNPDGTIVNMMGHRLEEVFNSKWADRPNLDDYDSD

T2: Bdf1 bromodomain 1 (GST-tagged, WT) (Saccharomyces cerevisiae (strain ATCC …, UniProt P35817))
T2 chain: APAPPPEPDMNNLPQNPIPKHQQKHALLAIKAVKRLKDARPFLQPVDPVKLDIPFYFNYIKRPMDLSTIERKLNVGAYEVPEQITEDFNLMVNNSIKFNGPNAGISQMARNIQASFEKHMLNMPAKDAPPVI

B1: H3 1-19 (peptide)
chain: ARTKQTARKSTGGKAPRKQ
modifications: A R T K Q T A R Kme1 S T G G K A P R K Q
B2: H3 26-45 (peptide)
chain: RKSAPATGGVKKPHRYRPG
modifications: R K S A P A T G G V Kac K P H R Y R P G
B3: H3 1-19 (peptide)
chain: ARTKQTARKSTGGKAPRKQ
modifications: A Rme2s T Kme2 Q T A Rme2s Kac S T G G K A P R K Q
B4: H3 1-19 (peptide)
chain: A[Arg(Me2s)]TK(Ac)QTA[Arg(Me2a)][Lys(Me3)]STGGKAPRKQ
B5: H3 1-19 (peptide)
chain: A[Arg(Me2s)]TK(Ac)QTA[Arg(Me2a)][Lys(Me2)]STGGKAPRKQ
B6: H3 1-19 (peptide)
chain: ARTKQTARKSTGGKAPRKQ
modifications: A R T K Q T A Rme2s Kac pS T G G K A P R K Q
B7: H4 1-19 (peptide)
chain: SGRGKGGKGLGKGGAKRHR
modifications: pS G Rme2s G K G G K G L G K G G A K R H R
B8: H4 1-19 (peptide)
chain: SGRGKGGKGLGKGGAKRHR
modifications: pS G Rme2a G K G G K G L G K G G A K R H R
B9: H3 1-19 (peptide)
chain: ARTKQTARKSTGGKAPRKQ
modifications: A Rme2s T Kme3 Q T A Rme2a Kme3 S T G G K A P R K Q
B10: H3 1-19 (peptide)
chain: ARTKQTARKSTGGKAPRKQ
modifications: A Rme2a T Kme3 Q T A Rme2s Kac S T G G K A P R K Q
B11: H3 16-35 (peptide)
chain: PRKQLATKAA[Arg(Me2a)][Lys(Me2)][pS]APATGG
B12: H4 1-19 (peptide)
chain: SGRGKGGKGLGKGGAKRHR
modifications: S G Rme2s G Kac G G K G L G K G G A K R H R
B13: H4 1-19 (peptide)
chain: SGRGKGGKGLGKGGAKRHR
modifications: pS G Rme2s G Kac G G K G L G K G G A K R H R
B14: H4 1-19 (peptide)
chain: SGRGKGGKGLGKGGAKRHR
modifications: pS G Rme2a G Kac G G K G L G K G G A K R H R
B15: H3 16-35 (peptide)
chain: PRKQLATKAAR[Lys(Me2)]SAPATGG
B16: H2a 1-19 (peptide)
chain: [pS]GRGKQGGK(Ac)ARAKAKSRSS
B17: H3 1-19 (peptide)
chain: A[Arg(Me2s)]TKQTARKSTGGKAPRKQ
B18: H3 1-19 (peptide)
chain: ARTKQTARKSTGGKAPRKQ
modifications: A R T Kme3 Q T A Rme2a Kac S T G G K A P R K Q
B19: H3 1-19 (peptide)
chain: ART[Lys(Me)]QTA[Arg(Me2s)][Lys(Me)]STGGKAPRKQ
B20: H3 1-19 (peptide)
chain: ARTKQTA[Arg(Me2s)]K(Ac)S[pT]GGKAPRKQ
B21: H3 16-35 (peptide)
chain: PRKQLATKAA[Arg(Me2s)]K(Ac)[pS]APATGG
B22: H3 16-35 (peptide)
chain: PRKQLATKAA[Arg(Me2a)][Lys(Me)][pS]APATGG
B23: H3 1-19 (peptide)
chain: ARTKQTARKSTGGKAPRKQ
modifications: A Rme2a T Kme3 Q T A Rme2a Kac S T G G K A P R K Q
B24: H3 1-19 (peptide)
chain: A[Arg(Me2s)][pT][Lys(Me)]QTARKSTGGKAPRKQ
B25: H4 1-19 (peptide)
chain: SGRGKGGKGLGKGGAKRHR
modifications: S G R G Kac G G Kac G L G K G G A K R H R
B26: H3 1-19 (peptide)
chain: ARTKQTARKSTGGKAPRKQ
modifications: A Rme2s T Kme3 Q T A Rme2s Kme2 S T G G K A P R K Q
B27: H3 1-19 (peptide)
chain: ARTKQTARKSTGGKAPRKQ
modifications: A R T K Q T A R K S pT G G K A P R K Q
B28: background 01 (peptide)
chain: KKKKKRRRRRXKKKKRK
modifications: K Kme1 Kme2 Kme3 Kac R Rme2s R Rme2a R Cit K Kme1 Kac Kme3 R K
B29: H3 1-19 (peptide)
chain: ARTKQTARKSTGGKAPRKQ
modifications: A Rme2a T Kme1 Q T A Rme2s Kac S T G G K A P R K Q
B30: H3 1-19 (peptide)
chain: A[Arg(Me2a)]TK(Ac)QTA[Arg(Me2a)][Lys(Me)]STGGKAPRKQ
B31: H3 1-19 (peptide)
chain: ARTKQTARKSTGGKAPRKQ
modifications: A Rme2a T Kme2 Q T A Rme2s Kme2 S T G G K A P R K Q
B32: H3 1-19 (peptide)
chain: A[Arg(Me2a)]T[Lys(Me3)]QTA[Arg(Me2a)][Lys(Me3)]STGGKAPRKQ
B33: H3 1-19 (peptide)
chain: ARTK(Me3)QTAR(Me2s)K(Me)STGGKAPRKQ
B34: H2a 1-19 (peptide)
chain: SGRGK(Ac)QGGKARAKAKSRSS
B35: H3 1-19 (peptide)
chain: ARTKQTARKSTGGKAPRKQ
modifications: A Rme2s T Kme1 Q T A Rme2a Kme2 S T G G K A P R K Q
B36: H3 1-19 (peptide)
chain: ARTKQTARKSTGGKAPRKQ
modifications: A Rme2a pT Kme3 Q T A R K S T G G K A P R K Q
B37: H3 16-35 (peptide)
chain: PRKQLATKAA[Arg(Me2s)][Lys(Me)]SAPATGG
B38: H3 16-35 (peptide)
chain: PRKQLATKAAR[Lys(Me2)][pS]APATGG
B39: H3 1-19 (peptide)
chain: AR(Me2a)TK(Me)QTAR(Me2s)K(Me)STGGKAPRKQ

Molecular target: T1, Bdf1 bromodomain 2 (GST-tagged, WT)
Assay: histone peptide array probed with recombinant GST-bromodomain, signal normalised to myc peptide control

binding score	Binder
0.00482	B1
0.0292	B2
0.0314	B3
0.00836	B4
0.00698	B5
0.00403	B6
0	B7
0	B8
0.00108	B9
0.0261	B10
0	B11
0.0652	B12
0.107	B13
0.0674	B14
0	B15
0.00817	B16
0	B17
0.0127	B18
0	B19
0.00679	B20

binding score	Binder
0	B21
0	B22
0	B23
0.00344	B24
0.33	B25
0	B26
0	B27
0	B28
0.0204	B29
0	B30
0	B31
0.00384	B32
0	B33
0.0459	B34
0	B35
0.000885	B36
0	B37
0	B38
0.00187	B39

Molecular target: T2, Bdf1 bromodomain 1 (GST-tagged, WT)
Assay: as above

binding score	Binder
0	B1
0.0463	B2
0.0179	B3
0.0145	B4
0.00197	B5
0.00484	B6
0	B7
0	B8
0.00681	B9
0.0181	B10
0	B11
0	B12
0.00968	B13
0.00753	B14
0.01	B15
0	B16
0.0111	B17
0.0142	B18
0.0199	B19
0.0118	B20

binding score	Binder
0.0061	B21
0	B22
0.0145	B23
0.00323	B24
0.146	B25
0.000538	B26
0	B27
0	B28
0.00717	B29
0.00897	B30
0	B31
0	B32
0	B33
0	B34
0.00502	B35
0.00789	B36
0	B37
0	B38
0.0102	B39

Reference: article PMC5261807 (2017)
